Data reported in paper PMC2914225, “Fusion of GFP to the M.EcoKI DNA methyltransferase produces a new probe of Type I DNA restriction and modification enzymes” (Biochemical and Biophysical Research Communications, 2010).

Legend:
[1] = molecular target: GFP-MTase (M.EcoKI DNA methyltransferase, M2S1 form, with enhanced green fluorescent protein fused to the C-terminus of HsdS) (E. coli) (UniProt P08957); test: SEC; labelled mutant ocr proteins with GFP-MTase, size exclusion chromatography as previously described [14]; 20 or 25 °C, 20 mM Tris-HCl pH 8.0, 6 mM MgCl2, 7 mM 2-mercaptoethanol
[2] = molecular target: T1, GFP-MTase (M.EcoKI M2S1 with EGFP fused to C-terminus of HsdS) (Escherichia coli? (EcoKI; expressed in …, UniProt P08957;P05719 1-529;1-464); test: FRET continuous variation titration; no NaCl; 6 mM Mg2+; 1:1 complex; 20 mM Tris-HCl pH 8.0, 6 mM MgCl2, 7 mM 2-mercaptoethanol, NaCl 0-100 mM (0 for the Kd), 20 or 25 °C; details: protein: recombinant; tags: EGFP-His6 at C-terminus of HsdS; chain copies: 2;1; label: 5'-HEX on top strand; blunt
T1 sequence 1: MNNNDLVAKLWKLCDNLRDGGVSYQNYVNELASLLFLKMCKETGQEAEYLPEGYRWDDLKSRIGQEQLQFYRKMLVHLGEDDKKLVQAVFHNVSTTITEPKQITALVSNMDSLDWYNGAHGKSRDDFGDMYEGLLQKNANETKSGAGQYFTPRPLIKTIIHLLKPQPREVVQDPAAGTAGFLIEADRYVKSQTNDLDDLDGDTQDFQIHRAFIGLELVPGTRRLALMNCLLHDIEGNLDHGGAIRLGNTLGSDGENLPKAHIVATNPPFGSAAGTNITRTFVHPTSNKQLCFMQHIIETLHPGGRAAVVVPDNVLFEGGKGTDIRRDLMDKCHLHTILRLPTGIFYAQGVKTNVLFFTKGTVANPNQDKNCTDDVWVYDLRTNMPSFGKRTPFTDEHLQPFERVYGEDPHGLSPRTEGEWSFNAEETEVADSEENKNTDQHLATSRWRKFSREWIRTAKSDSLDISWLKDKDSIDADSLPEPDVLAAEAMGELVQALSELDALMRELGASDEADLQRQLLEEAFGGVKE
T1 sequence 2: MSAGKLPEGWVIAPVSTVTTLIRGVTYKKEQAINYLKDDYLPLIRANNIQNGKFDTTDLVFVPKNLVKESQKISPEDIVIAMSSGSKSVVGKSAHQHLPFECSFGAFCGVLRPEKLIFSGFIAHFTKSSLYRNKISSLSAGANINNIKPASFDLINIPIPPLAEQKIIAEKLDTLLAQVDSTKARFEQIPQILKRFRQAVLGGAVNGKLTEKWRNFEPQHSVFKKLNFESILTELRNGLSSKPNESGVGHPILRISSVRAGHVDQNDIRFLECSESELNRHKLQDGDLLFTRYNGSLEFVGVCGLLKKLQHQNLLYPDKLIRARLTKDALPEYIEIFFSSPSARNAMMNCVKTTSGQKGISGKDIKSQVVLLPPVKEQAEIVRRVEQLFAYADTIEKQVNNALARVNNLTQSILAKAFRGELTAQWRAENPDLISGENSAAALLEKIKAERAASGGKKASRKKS

[3] = molecular target: T2, GFP-MTase (M.EcoKI DNA methyltransferase, M2S1 form, with enhanced green fluorescent protein fused to the … (E. coli, UniProt P08957 1-529; P05719 1-464); test: SEC; labelled mutant ocr proteins with GFP-MTase, size exclusion chromatography as previously described [14]; 20 or 25 °C, 20 mM Tris-HCl pH 8.0, 6 mM MgCl2, 7 mM 2-mercaptoethanol; details: both partners purified
T2 construct: HsdM modification (MTase) subunit of the Type I R/M enzyme EcoKI, E. coli; its C-terminus is fused to the N-terminus of EGFP; Construct pJFMSEGFP derives from pJFMS [18] and pEGFP-N1; EGFP serves as the FRET donor; also called M.EcoKI fused to GFP; fusion protein; not shown: EGFP, C-terminal, kept; copies: 2 + 1
T2 sequence (looked up) 1: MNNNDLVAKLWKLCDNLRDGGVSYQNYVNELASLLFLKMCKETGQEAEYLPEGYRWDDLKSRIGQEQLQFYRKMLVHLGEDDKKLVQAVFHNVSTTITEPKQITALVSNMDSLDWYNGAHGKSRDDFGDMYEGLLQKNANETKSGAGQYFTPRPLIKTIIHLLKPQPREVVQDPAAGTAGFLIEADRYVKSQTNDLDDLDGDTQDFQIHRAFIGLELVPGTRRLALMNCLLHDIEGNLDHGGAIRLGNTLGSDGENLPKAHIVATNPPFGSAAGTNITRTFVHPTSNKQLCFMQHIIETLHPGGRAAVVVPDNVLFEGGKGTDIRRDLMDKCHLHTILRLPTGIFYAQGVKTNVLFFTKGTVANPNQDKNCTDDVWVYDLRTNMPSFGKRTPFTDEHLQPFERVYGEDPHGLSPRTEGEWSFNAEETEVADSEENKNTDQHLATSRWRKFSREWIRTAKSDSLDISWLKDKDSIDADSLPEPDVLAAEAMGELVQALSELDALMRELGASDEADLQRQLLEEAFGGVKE
T2 sequence (looked up) 2: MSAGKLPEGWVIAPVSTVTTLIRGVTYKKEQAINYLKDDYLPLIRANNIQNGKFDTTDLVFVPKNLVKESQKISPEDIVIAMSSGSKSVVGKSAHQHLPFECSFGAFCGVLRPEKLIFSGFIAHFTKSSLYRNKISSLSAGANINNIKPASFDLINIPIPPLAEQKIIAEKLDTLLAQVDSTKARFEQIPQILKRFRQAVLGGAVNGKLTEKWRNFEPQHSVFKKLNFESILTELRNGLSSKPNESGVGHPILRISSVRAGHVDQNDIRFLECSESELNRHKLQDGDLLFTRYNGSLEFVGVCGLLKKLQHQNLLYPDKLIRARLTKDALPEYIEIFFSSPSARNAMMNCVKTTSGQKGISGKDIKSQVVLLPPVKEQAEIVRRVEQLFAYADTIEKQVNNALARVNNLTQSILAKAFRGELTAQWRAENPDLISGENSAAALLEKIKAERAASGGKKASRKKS

“Dylight549-labelled ocr E20C mutant protein (from UniProt P03775 1-117) (natural protein)” was tested, and the stoichiometry N [1] was 1.

Molecule “Dylight549-labelled ocr S68C mutant protein (from UniProt P03775 1-117) (natural protein)” has a stoichiometry N [1] of 1.

B1: 21TH21B (dsDNA)
DNA 1: GCCTAACCACGTGGTGCGTAC
DNA 2: GTACGCACCACGTGGTTAGGC
Molecule B1 has a Kd [2] of 19 ± 7 nM.

B2: Dylight549-labelled ocr E117C mutant protein (natural protein, phage T7, UniProt P03775 1-117, looked up)
chain: MAMSNMTYNNVFDHAYEMLKENIRYDDIRDTDDLHDAIHMAADNAVPHYYADIFSVMASEGIDLEFEDSGLMPDTKDVIRILQARIYEQLTIDLWEDAEDLLNEYLEEVEEYEEDEC
modifications: Dylight549 maleimide on the introduced cysteine at 117 (labelling level 86.3%)
notes: gene 0.3 protein, ocr, from phage T7; one cysteine and so one acceptor label in each subunit; also called E117C ocr; E117E (as printed once); source: site directed mutagenesis and protein purification as described previously [17]
In the case of B2, the “stoichiometry N” value [3] is reported as 1.
